These results are taken from patent publication US10280442B2, “Mutant sucrose phosphorylases with improved glycosylation activity towards polyphenols” (Universiteit Gent, priority 2015, dated 2019).

Positions count from the first letter of the chain named. Names may count otherwise.

For data set [1], the system named is Thermoanaerobacterium thermosaccharolyticum sucrose phosphorylase (TtSPP), EC 2.4.1.329, wild type. The settings on record: sucrose as glycosyl donor; Verhaeghe et al., 2014; cited from earlier work.
Data set [2] concerns the target T1, Thermoanaerobacterium thermosaccharolyticum sucrose phosphorylase (TtSPP) variant R134A, SEQ ID No 1 (Thermoanaerobacterium thermosaccharolyticum, UniProt D9TT09, R134A).
T1 sequence (D9TT09 1-488 R134A): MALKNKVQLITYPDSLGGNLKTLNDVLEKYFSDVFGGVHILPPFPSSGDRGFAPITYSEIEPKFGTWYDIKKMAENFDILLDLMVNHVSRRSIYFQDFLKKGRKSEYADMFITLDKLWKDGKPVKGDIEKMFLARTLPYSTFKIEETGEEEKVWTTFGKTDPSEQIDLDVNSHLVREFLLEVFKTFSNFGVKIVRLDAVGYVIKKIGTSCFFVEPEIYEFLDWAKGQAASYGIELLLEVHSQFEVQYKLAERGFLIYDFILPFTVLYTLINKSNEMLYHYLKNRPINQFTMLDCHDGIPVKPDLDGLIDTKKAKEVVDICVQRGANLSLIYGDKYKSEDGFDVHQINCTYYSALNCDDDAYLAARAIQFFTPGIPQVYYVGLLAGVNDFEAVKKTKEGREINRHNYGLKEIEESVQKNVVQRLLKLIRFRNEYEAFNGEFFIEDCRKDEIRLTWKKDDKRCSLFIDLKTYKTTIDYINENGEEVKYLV
Description: Kinetics of resveratrol glycosylation by variant R134A (co-substrate sucrose). The settings on record: 1M sucrose as co-substrate, pH 6.5, 55° C., 20% AMMOENG 101. Format: biochemical. The procedure: (§1) Kinetics of enzyme variants on resveratrol were determined in an aqueous system containing 20% ionic liquid AMMOENG 101 (kindly provided by Evonik Industries AG) to dissolve the acceptor in a range of 0 to 200 mM. At this concentration of ionic liquid, the kinetic parameters of the enzyme for its natural substrates are not affected. Reactions were started combining 8.5 μM heat purified enzymes, 1 M sucrose and the respective acceptor-concentration at 55° C. To determine the initial velocity, samples were taken every 15 minutes for one hour, and inactivated by ten-fold dilution in pure ethanol. Product formation was again quantified by TLC and ImageJ analysis, using purified resveratrol 3-alpha-glucoside as TLC-standard and a respective standard curve for calculations. Kinetic parameters were calculated by non-linear regression of the Michaelis-Menten equation with Sigma Plot v13.0. All experiments were performed in triplicate to obtain kinetic parameters as reproducible mean values±standard errors.

Data set [3] concerns the target Thermoanaerobacterium thermosaccharolyticum sucrose phosphorylase (TtSPP) variant R134V, SEQ ID No 2 (Thermoanaerobacterium thermosaccharolyticum, UniProt D9TT09, R134V). Description: Kinetics of resveratrol glycosylation by variant R134V (co-substrate sucrose). Format: biochemical. The settings on record: 1M sucrose as co-substrate, pH 6.5, 55° C., 20% AMMOENG 101. The procedure:
as §1

Substrate in data set [4]: Oc1ccc(/C=C/c2cc(O)cc(O)c2)cc1
Description: Kinetics of resveratrol glycosylation by variant R134T (co-substrate sucrose). To be noted: other: variant R134T, 1M sucrose as co-substrate, pH 6.5, 55° C., 20% AMMOENG 101. Format: biochemical, Thermoanaerobacterium thermosaccharolyticum. The procedure:
as §1

The nature of data set [5]: Screening assay, transglycosylation activity on resveratrol (semi-quantitative TLC). Format: biochemical. The settings on record: 1 gL^−1 enzyme, 10 gL^−1 acceptor, 1 M sucrose, pH 6.5, 37° C., 16 h; FIG. 1. The method, then: (§2) Heat-purified proteins (for tests on different acceptors) or crude protein extracts (for library screening) were incubated to a final concentration of 1 gL^−1 with 10 gL^−1 acceptor and 1 M sucrose in 50 mM MOPS-buffer at pH 6.5. Assays were performed at 37° C. in microtiterplates shaking at 200 rpm. The product amounts were evaluated after 16 h by semi-quantitative TLC-analysis: 1 μl of each sample solution was spotted on a Silica-plate (TLC-Silica gel 60 F254, Merck Millipore) and run in a solvent system from ethylacetate:methanol:water (30:5:4, v/v/v). Plates were oxidized with 10% sulphuric acid and spot intensities were determined using ImagaJ.

Data set [6] is described as follows: Screening assay, transglycosylation activity on quercetin (semi-quantitative TLC). Format: biochemical. The settings on record: 1 gL^−1 enzyme, 10 gL^−1 acceptor, 1 M sucrose, pH 6.5, 37° C., 16 h; FIG. 2 A. The procedure: as §2
Data set [7] in a line: Qualitative survey of promiscuity on diverse polyphenolic acceptors. In kind it is biochemical. The settings on record: FIG. 2 B. The method, then: as §2
A short description of data set [8]: Production of resveratrol 3-alpha-glucoside in aqueous system, followed by HPLC. In kind it is biochemical. To be noted: 1 M sucrose, saturated suspension of 10 g·L^−1 resveratrol, 24 h, 55° C., pH 6.5. The method, then:
Up-scaling of the transglycosylation reactions on resveratrol was performed up to 400 ml volumes. Reactors were stirred continuously at 55° C. for 24 h, and contained 1 M sucrose, 1 mgL^−1 enzyme and 10 gL^−1 of resveratrol (suspension) in 50 mM MOPS-buffer pH 6.5. Thanks to the quantitative conversion of resveratrol, its glucoside could be simply isolated by repeated ethylacetate extractions to a purity of >90%. The solvent was evaporated and the dried product analyzed by HPLC to determine purity and yield. To verify the identity of the compound by NMR and to produce the standards (TLC, H PLC), further purification was performed by column chromatography on silica gel (EtOAC:MeOH:H2O; 30:5:4; v/v/v) as described earlier (De Winter et al, 2013).
Reactions were followed for 24 h. […] Supernatants were filtered through a 0.2 μm polystyrol filter, diluted in DMSO and analyzed by HPLC using a polar Waters XBridge Amide column (250×4.6 mm, 3.5 μm) and an Alltech 2000ES ELSD-detector (40° C., gas flow 1.5 Lmin^−1), supplied with a gradient mixture of eluent A (acetonitrile, 0.2% triehtylamine) and eluent B (0.2% triethylamine): 90% solvent A (6 min), 10-25% solvent B (stepwise, 3% min^−1), 25% solvent B (20 min) and 90% solvent A (10 min). Concentrations of ingredients and respective yields were calculated according to standards of fructose, glucose and resveratrol 3-alpha-glucoside.

Sequence of Thermoanaerobacterium thermosaccharolyticum sucrose phosphorylase (TtSPP) variant R134V, SEQ ID No 2 (D9TT09 whole entry R134V): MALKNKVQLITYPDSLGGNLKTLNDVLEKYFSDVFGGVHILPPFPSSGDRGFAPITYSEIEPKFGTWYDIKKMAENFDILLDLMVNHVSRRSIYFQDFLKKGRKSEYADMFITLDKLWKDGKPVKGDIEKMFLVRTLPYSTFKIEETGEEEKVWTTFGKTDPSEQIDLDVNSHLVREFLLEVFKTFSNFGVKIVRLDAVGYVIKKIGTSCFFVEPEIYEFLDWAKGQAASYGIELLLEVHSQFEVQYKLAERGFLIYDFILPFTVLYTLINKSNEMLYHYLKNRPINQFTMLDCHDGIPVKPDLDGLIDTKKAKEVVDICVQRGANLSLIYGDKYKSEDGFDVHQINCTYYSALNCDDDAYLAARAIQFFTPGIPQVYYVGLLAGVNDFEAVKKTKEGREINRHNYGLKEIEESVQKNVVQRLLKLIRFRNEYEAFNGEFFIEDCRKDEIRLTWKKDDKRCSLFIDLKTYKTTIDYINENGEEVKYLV

By Km is commonly meant the concentration of substrate that gives half-maximal velocity. Turning to `OC[C@H]1O[C@@](CO)(O[C@H]2O[C@H](CO)[C@@H](O)[C@H](O)[C@H]2O)[C@@H](O)[C@@H]1O` [sucrose], in data set [1], the Km was 77 mM.
A word on the kcat: it is the number of substrate molecules converted per active site and unit of time at saturation. Turning to `Oc1ccc(/C=C/c2cc(O)cc(O)c2)cc1` [resveratrol, trans-3,4′,5-trihydroxystilbene], the turnover number (kcat) in data set [2] was 2.36 ± 0.25 s⁻¹; in data set [3], 0.45 ± 0.02 s⁻¹.

B1: Thermoanaerobacterium thermosaccharolyticum sucrose phosphorylase (TtSPP) variant R134T, SEQ ID No 3 (Thermoanaerobacterium thermosaccharolyticum DSM 571; … (protein)
chain: T1 sequence (D9TT09 1-488 R134A) with A134T
As a reminder, the kcat/Km is the second-order rate constant that governs catalysis at low substrate concentration. Turning to B1, in data set [4], the Km is given as 56 ± 8 mM, the catalytic constant (kcat) worked out at 0.08 ± 0.004 s⁻¹ and the kcat/Km was 1.4 ± 0.2 M⁻¹ s⁻¹.

B2: R134A: variant R134A of TtSPP sucrose phosphorylase from Thermoanaerobacterium thermosaccharolyticum (protein)
chain: T1 sequence (D9TT09 1-488 R134A)
modifications: mutant of sucrose phosphorylase of bacterium Thermoanaerobacterium thermosaccharolyticum
For the molecule B2, the “transglycosylation activity on resveratrol” value in data set [5] is “retained more than half of its activity on resveratrol”. Moreover, the “transglycosylation activity on quercetin” value in data set [6] is reported as “significant amounts of transglycosylation product could be detected”. Also, the “activity on flavonoids and phenoxyphenols (acceptor promiscuity)” value in data set [7] is reported as “displayed activity on structures from all five major classes of flavonoids”. In data set [8], the “resveratrol 3-alpha-glucoside produced” value stood at 17.1 ± 0.6 g/L. Also, the “conversion of resveratrol (acceptor)” value in data set [8] (FIG. 3) was “complete conversion of the acceptor”.

B3: BaSP: wild-type thermostable sucrose phosphorylase of Bifidobacterium adolescentis (protein, UniProt A0ZZH6 1-504, looked up)
Sucrose phosphorylase: MKNKVQLITYADRLGDGTIKSMTDILRTRFDGVYDGVHILPFFTPFDGADAGFDPIDHTKVDERLGSWDDVAELSKTHNIMVDAIVNHMSWESKQFQDVLAKGEESEYYPMFLTMSSVFPNGATEEDLAGIYRPRPGLPFTHYKFAGKTRLVWVSFTPQQVDIDTDSDKGWEYLMSIFDQMAASHVSYIRLDAVGYGAKEAGTSCFMTPKTFKLISRLREEGVKRGLEILIEVHSYYKKQVEIASKVDRVYDFALPPLLLHALSTGHVEPVAHWTDIRPNNAVTVLDTHDGIGVIDIGSDQLDRSLKGLVPDEDVDNLVNTIHANTHGESQAATGAAASNLDLYQVNSTYYSALGCNDQHYIAARAVQFFLPGVPQVYYVGALAGKNDMELLRKTNNGRDINRHYYSTAEIDENLKRPVVKALNALAKFRNELDAFDGTFSYTTDDDTSISFTWRGETSQATLTFEPKRGLGVDNTTPVAMLEWEDSAGDHRSDDLIANPPVVA
For B3, the “transglycosylation activity on resveratrol” value in data set [5] was “Neither of these enzymes display significant activity on resveratrol”. For the same molecule, in data set [6], the “transglycosylation activity on quercetin” value is reported as “neither had activity on quercetin”.
